# Measured values as given in paper PMC7185714, “Structure and conformational cycle of a bacteriophage-encoded chaperonin” (PLoS ONE, 2020).
# B1: ɸEL (gp146) (Pseudomonas phage EL) (protein)
# chain: MSQTLLVHGKDAQGIIKQVLSEVYDAVTSTMGPNGQLVMIKNGVSTKTTKDGVTVARSIRFADEAHELVNRVITEPATKTDEECGDGTTTTIMLTHALYHLFKDFPGFQHHRNIEDLVERVIQRLESMAIRVEVDDPRLYQVALTSSNQDEKLARLVSELYANNKGSYPDIELKEGVNFEDQIEQTTGRTIRMFYANPWFAKGHQGGVTELTGFTAFVIDRRIDKEDTQKLIDGVNHLVKTHKQHLALPILLIARSFEEAANSTLMQLNAAHPTLVEDGRPWLIPLSTPVGGAIGTSELQDIAVMLNAPMLSDVADLTKLDTHSINGQHGQLELGGNRSILKSTTPKDEDRIEQHARGIEELLEGFSLSDKFSVRARYNERRIRTLRGKLITISVGGETYSEVKERVDRYEDVVKAIRSALENGILPGGGVSLVKAVFGTIKEGLEDKDQSAEFAKRYINSGIANELMRLSTIQHKLLFKDTALYKENGSFHFNDDWLNTPTVMNLATGEIGTPEGLGIYDTAYASITALKGGLQTAKILATTKTLILGEKLSAVKVR
# notes: tetradecameric double ring (~863 kDa) or single-ring heptamer (~431 kDa, with ATP and in the crystals)
# B2: E. coli GroES (natural protein)
# chain: MNIRPLHDRVIVKRKEVETKSAGGIVLTGSAAAKSTRGEVLAVGNGRILENGEVKPLDVKVGDIVIFNDGYGVKSEKIDNEEVLIMSESDILAIVEA
# Key:
# [1] = biological target: T1, ɸEL (gp146) (Pseudomonas phage EL, UniProt Q2Z0T5); assay: cryo-EM structure ([…] Å); assay type: binding; settings: double ring, D7, pH 7.5, Mg2+; pseudo-atomic model; ADP also modelled in crystal form II (6TMU, chains B, D, F, partial occupancy)
# T1 construct: tetradecameric double ring (~863 kDa) or single-ring heptamer (~431 kDa, with ATP and in the crystals)
# T1 sequence (Q2Z0T5 1-558): B1 chain
# [2] = biological target: T2, GroEL (Escherichia coli, UniProt P0A6F5); assay: NADH-coupled ATPase assay; assay type: biochemical; settings: 1 mM ATP, 50 mM Tris-HCl pH 7.5, 10 or 100 mM KCl, 10 mM MgCl2, 25°C; without GroES; rates only in figure
# T2 construct: purified GroEL tetradecamer; source and preparation not described
# [3] = biological target: T1, ɸEL (gp146); assay: X-ray crystal structure ([…] Å, crystal form I); assay type: binding; settings: ATP added with BeSO4/NaF; ATP and ADP-BeFx not distinguishable, modelled as ATP with Mg2+; single-ring heptamer, equatorial domain site; also in form II (6TMU, 3.54 Å; chains A, C, E, G)
# [4] = biological target: T1, ɸEL (gp146); assay: cryo-EM structure ([…] Å); assay type: binding; settings: double ring, D7, pH 7.5, Mg2+; slowly hydrolysed ATP analogue; pseudo-atomic model
# [5] = biological target: chaperonin gp146 (ɸEL) from the phage EL of Pseudomonas aeruginosa (Pseudomonas bacteriophage EL); assay: SEC-MALS; ɸEL at 2 g/L, with 2 mM ATP, 20 mM HEPES-NaOH pH 7.5, 50 mM KCl, 4 mM Mg acetate, 25°C
# [6] = biological target: chaperonin gp146 (ɸEL) from the phage EL of Pseudomonas aeruginosa (Pseudomonas bacteriophage EL); assay: crystal structure; ɸEL crystallised with 2 mM ATP, 5 mM BeSO4 and 20 mM NaF; crystal forms I (4.03 Å) and II (3.54 Å)
# [7] = biological target: chaperonin gp146 (ɸEL) from the phage EL of Pseudomonas aeruginosa (Pseudomonas bacteriophage EL); assay: cryo-EM structure; ɸEL with ATPγS, single particle analysis, D7 symmetry, 5.8 Å
# [8] = biological target: chaperonin gp146 (ɸEL) from the phage EL of Pseudomonas aeruginosa (Pseudomonas bacteriophage EL); assay: SEC-MALS; ɸEL at 2 g/L, with 2 mM ATP, 20 mM HEPES-NaOH pH 7.5, 100 mM KCl, 2 mM Mg acetate, 25°C
# [9] = biological target: chaperonin gp146 (ɸEL) from the phage EL of Pseudomonas aeruginosa (Pseudomonas bacteriophage EL); assay: cryo-EM structure; apo-ɸEL, no nucleotide, single particle analysis, C2 symmetry, 3.45 Å
# [10] = biological target: chaperonin gp146 (ɸEL) from the phage EL of Pseudomonas aeruginosa (Pseudomonas bacteriophage EL); assay: SEC-MALS; ɸEL at 2 g/L, no nucleotide, 20 mM HEPES-NaOH pH 7.5, 100 mM KCl, 2 mM Mg acetate (also run at 50 mM KCl), 25°C
# [11] = biological target: chaperonin gp146 (ɸEL) from the phage EL of Pseudomonas aeruginosa (Pseudomonas bacteriophage EL); assay: SEC-MALS; ɸEL at 2 g/L, with 2 mM ADP, 20 mM HEPES-NaOH pH 7.5, 100 mM KCl, 2 mM Mg acetate (also run at 50 mM KCl), 25°C
# [12] = biological target: chaperonin gp146 (ɸEL) from the phage EL of Pseudomonas aeruginosa (Pseudomonas bacteriophage EL); assay: cryo-EM structure; ɸEL with ADP, single particle analysis, D7 symmetry, 5.9 Å
# [13] = biological target: T3, GroEL from E. coli (E. coli, UniProt P0A6F5 1-548)
# [14] = biological target: chaperonin gp146 (ɸEL) from the phage EL of Pseudomonas aeruginosa (Pseudomonas bacteriophage EL)
# [15] = substrate: Nc1ncnc2c1ncn2[C@@H]1O[C@H](COP(=O)(O)OP(=O)(O)OP(=O)(O)O)[C@@H](O)[C@H]1O; assay: NADH-coupled ATPase assay (pyruvate kinase/lactate dehydrogenase), Hill fit; assay type: biochemical, Pseudomonas phage EL; settings: high salt: 50 mM Tris-HCl pH 7.5, 100 mM KCl, 10 mM MgCl2, 25°C, Hill coefficient fitted
# [16] = biological target: T3, GroEL from E. coli; assay: cell-based or functional assay
# T3 sequence (P0A6F5 whole entry): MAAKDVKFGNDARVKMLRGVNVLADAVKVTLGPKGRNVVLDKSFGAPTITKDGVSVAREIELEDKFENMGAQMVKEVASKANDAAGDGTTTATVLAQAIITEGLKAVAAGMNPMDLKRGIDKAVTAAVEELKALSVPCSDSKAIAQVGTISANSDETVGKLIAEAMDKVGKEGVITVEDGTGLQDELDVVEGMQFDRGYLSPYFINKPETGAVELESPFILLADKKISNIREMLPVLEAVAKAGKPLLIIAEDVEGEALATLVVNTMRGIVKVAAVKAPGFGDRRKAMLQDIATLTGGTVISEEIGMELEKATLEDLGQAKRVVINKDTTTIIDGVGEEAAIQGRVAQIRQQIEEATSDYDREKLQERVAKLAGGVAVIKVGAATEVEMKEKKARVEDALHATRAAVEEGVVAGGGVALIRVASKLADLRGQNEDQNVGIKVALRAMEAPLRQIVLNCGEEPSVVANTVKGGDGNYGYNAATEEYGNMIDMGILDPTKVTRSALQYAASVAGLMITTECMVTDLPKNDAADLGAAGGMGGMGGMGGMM
# T2 sequence (P0A6F5 2-548): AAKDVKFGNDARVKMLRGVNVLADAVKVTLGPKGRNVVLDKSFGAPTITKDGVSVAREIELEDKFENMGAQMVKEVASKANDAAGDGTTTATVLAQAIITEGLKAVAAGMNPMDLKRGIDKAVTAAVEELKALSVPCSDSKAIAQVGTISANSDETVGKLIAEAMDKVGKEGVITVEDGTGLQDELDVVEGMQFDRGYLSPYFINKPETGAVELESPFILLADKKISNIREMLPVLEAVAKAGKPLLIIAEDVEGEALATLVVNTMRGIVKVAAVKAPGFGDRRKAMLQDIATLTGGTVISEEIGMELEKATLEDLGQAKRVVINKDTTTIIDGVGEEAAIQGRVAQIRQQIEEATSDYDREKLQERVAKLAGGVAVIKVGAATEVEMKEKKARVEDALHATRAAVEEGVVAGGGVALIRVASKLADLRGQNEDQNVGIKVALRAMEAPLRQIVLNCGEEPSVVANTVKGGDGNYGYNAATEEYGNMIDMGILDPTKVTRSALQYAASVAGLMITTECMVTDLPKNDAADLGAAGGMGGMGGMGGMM
molecule,measurement,setting,value
Nc1ncnc2c1ncn2[C@@H]1O[C@H](COP(=O)(O)OP(=O)(O)O)[C@@H](O)[C@H]1O [ADP],cryo-EM structure (5.9 Å),[1],we determined the solution structure of ɸEL in the presence of ADP by single-particle cryo-EM
Nc1ncnc2c1ncn2[C@@H]1O[C@H](COP(=O)(O)OP(=O)(O)OP(=O)(O)O)[C@@H](O)[C@H]1O [ATP],NADH-coupled ATPase assay,[2],ATPase activity of GroEL and ɸEL in presence and absence of a two-fold excess
same,"X-ray crystal structure (4.03 Å, crystal form I)",[3],All subunits as judged from the electron density had either ATP or ADP•BeFX bound
Nc1ncnc2c1ncn2[C@@H]1O[C@H](COP(=O)(O)OP(=O)(O)OP(O)(O)=S)[C@@H](O)[C@H]1O [ATPγS],cryo-EM structure (5.8 Å),[4],we also determined the cryo-EM structure of ɸEL in the presence of the slowly hydrolyzing
chaperonin gp146 (ɸEL) from the phage EL of Pseudomonas aeruginosa (natural protein),stoichiometry N,[5],14
same,stoichiometry N,[6],7
same,stoichiometry N,[7],14
same,stoichiometry N,[8],7
same,stoichiometry N,[9],14
same,stoichiometry N,[10],14
same,stoichiometry N,[11],14
same,stoichiometry N,[12],14
"double mutant of maltose binding protein (DM-MBP), denatured (from UniProt P0AEX9 27-396) (natural protein)","GroEL ATPase activity with denatured DM-MBP, at 10 and 100 mM KCl, 1 mM ATP",[13],2 fold
same,"decrease in ɸEL ATPase activity with denatured DM-MBP, at 10 mM KCl, 1 mM ATP",[14],60%
B1,Km,[15],72 ± 8 µM
same,kcat,[15],9.6 ± 0.12 s⁻¹ (per tetradecamer)
B2,"decrease in GroEL ATPase activity with a 2-fold molar excess of GroES, at 10 and 100 mM KCl, 1 mM ATP",[16],~50%
